Experimental data from article PMC11696143, “A higher order PUF complex is central to regulation of C. elegans germline stem cells” (Nature Communications, 2024).
Values joined by “and” are separate entries in the source; they are usually repeats but may differ in a detail not shown here. Equal values may be shown once.

T1: FBF-2 RBD (Caenorhabditis elegans, UniProt Q09312 164-575)
T1 sequence: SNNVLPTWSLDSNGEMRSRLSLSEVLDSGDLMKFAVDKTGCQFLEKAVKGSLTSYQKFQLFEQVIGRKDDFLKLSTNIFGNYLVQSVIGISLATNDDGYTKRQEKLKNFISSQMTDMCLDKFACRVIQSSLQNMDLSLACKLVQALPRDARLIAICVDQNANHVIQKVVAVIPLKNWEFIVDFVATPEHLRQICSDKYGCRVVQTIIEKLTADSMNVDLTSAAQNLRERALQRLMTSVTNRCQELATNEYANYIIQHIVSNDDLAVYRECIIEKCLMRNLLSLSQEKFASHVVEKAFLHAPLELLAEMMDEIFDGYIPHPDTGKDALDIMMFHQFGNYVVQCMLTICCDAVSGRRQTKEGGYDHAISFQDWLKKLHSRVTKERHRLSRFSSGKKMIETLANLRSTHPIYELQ

T2: FBF-2 RBD+CT (Caenorhabditis elegans, UniProt Q09312 164-632)
T2 sequence: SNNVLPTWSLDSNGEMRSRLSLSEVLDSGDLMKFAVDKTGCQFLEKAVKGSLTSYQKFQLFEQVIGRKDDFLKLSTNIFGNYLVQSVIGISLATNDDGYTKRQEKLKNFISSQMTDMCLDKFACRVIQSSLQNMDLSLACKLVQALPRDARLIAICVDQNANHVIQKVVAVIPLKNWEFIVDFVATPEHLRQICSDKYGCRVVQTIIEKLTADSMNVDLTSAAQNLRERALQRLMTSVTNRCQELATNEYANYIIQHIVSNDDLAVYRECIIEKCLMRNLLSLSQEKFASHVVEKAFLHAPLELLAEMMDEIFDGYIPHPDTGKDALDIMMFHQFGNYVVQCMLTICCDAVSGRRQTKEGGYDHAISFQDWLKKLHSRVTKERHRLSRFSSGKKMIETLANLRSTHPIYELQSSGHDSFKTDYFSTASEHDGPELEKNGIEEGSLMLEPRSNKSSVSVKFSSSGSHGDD

T3: C. elegans FBF-2 RBD+CT (residues 164-632) (C. elegans, UniProt Q09312 164-632)
T3 sequence (looked up): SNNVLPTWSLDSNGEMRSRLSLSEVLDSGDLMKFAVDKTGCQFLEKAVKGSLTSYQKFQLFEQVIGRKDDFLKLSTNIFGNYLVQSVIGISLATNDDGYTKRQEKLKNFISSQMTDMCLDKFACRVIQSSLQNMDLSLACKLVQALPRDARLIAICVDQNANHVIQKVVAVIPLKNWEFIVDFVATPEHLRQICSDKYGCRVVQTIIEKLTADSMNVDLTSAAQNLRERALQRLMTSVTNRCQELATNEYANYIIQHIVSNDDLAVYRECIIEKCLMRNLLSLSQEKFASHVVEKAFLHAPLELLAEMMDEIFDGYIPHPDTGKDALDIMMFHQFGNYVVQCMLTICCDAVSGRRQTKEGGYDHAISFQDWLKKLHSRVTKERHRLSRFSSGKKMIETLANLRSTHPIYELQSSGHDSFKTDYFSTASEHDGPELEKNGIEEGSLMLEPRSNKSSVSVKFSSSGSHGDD

T4: C. elegans FBF-2 RBD (residues 164-575) (C. elegans, UniProt Q09312 164-575)
T4 construct: His-SUMO tag cleaved with TEV protease (the insert came from an earlier pGEX6p FBF-2 RBD construct); source: E. coli, purified as FBF-2 RBD+CT (Ni-NTA, heparin, Superdex 75); for SEC-MALS and cryo-EM coexpressed with GST-LST-1 19-98 in E. coli BL21-CodonPlus (DE3)-RIL and purified as a complex; not shown: His6-SUMO, N-terminal, cleaved
T4 sequence (looked up): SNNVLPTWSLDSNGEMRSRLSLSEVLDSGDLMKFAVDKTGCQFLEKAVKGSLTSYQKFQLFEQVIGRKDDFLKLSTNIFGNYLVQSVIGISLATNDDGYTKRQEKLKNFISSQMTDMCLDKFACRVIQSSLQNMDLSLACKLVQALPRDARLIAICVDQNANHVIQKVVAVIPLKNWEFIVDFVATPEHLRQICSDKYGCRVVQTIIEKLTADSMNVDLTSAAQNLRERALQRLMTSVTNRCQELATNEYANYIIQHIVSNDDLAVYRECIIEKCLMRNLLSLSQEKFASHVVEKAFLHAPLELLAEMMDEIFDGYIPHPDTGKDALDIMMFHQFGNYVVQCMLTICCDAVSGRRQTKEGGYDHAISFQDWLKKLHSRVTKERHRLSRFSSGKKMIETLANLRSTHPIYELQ

T5: FBF-2 RBD;LST-1 19-98 S74C (Caenorhabditis elegans;Caenorhabditis …, UniProt Q09312;P91820 164-575;19-98, |S74C)
T5 sequence 1: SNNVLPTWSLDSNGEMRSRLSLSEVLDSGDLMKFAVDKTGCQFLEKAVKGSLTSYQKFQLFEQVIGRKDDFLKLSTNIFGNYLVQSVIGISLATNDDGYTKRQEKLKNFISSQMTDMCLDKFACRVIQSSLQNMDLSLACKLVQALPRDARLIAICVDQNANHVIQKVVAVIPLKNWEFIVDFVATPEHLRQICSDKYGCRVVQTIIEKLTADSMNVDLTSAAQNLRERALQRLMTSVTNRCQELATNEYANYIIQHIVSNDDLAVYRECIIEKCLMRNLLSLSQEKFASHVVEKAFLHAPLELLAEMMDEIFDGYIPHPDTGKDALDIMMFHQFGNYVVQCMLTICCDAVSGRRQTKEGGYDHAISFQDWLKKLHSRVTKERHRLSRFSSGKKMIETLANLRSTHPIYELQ
T5 sequence 2: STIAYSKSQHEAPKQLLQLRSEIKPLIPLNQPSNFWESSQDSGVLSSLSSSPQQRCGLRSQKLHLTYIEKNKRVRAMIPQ


Legend:
[1] = molecular target: T1, FBF-2 RBD; assay: X-ray crystallography; 2.2 A; EMSA: 5 nM RNA, 10 mM HEPES pH 7.4, 75 mM NaCl, 0.01% Tween 20, 0.1 mg/ml BSA, 0.1 mg/ml yeast tRNA, 2 mM DTT, 4 C overnight; conditions: protein: recombinant; tags: His-SUMO, removed by TEV
[2] = molecular target: T2, FBF-2 RBD+CT; assay: EMSA; apparent Kd, Hill fit; EMSA: 5 nM RNA, 10 mM HEPES pH 7.4, 75 mM NaCl, 0.01% Tween 20, 0.1 mg/ml BSA, 0.1 mg/ml yeast tRNA, 2 mM DTT, 4 C overnight; conditions: protein: recombinant; tags: His6-SUMO, removed by Ulp1; label: 3'-Cy5
[3] = molecular target: T1, FBF-2 RBD; assay: as above; conditions: protein: recombinant; tags: His-SUMO, removed by TEV; label: 3'-Cy5
[4] = molecular target: T3, C. elegans FBF-2 RBD+CT (residues …); assay: cell-based or functional assay
[5] = molecular target: T3, C. elegans FBF-2 RBD+CT (residues …); assay: ITC; LST-1 variant (100-400 µM) titrated from the syringe into the cell with FBF-2 (10-30 µM); 20 °C; 20 mM HEPES pH 7.4, 150 mM NaCl, 0.5 mM TCEP; no RNA; one-site model; apparent constants; two technical replicates; conditions: both partners purified
[6] = molecular target: T4, C. elegans FBF-2 RBD (residues 164-575); assay: as above; conditions: both partners purified
[7] = molecular target: T3, C. elegans FBF-2 RBD+CT (residues …); assay: SEC-MALS; co-purified FBF-2 RBD+CT or RBD/LST-1 19-98 complex (~30 µM) with 29-nt gld-1 FBEa-FBEa* RNA on Superdex-200 10/300 GL; 20 mM HEPES pH 7.4, 150 mM NaCl, 2 mM DTT; conditions: both partners purified
[8] = molecular target: T4, C. elegans FBF-2 RBD (residues 164-575); assay: as above; conditions: both partners purified
[9] = molecular target: T4, C. elegans FBF-2 RBD (residues 164-575); assay: FRET or BRET; 2 µM unlabeled FBF-2 RBD pre-incubated with Cy5-labeled LST-1 19-98 (20, 40, 80 nM), then 20 nM 5'-Cy3 gld-1 FBEa-FBEa* RNA; room temperature; FRET from Cy3 on the RNA to Cy5 on LST-1; conditions: both partners purified
[10] = molecular target: T5, FBF-2 RBD;LST-1 19-98 S74C; assay: FRET; 2 uM FBF-2 RBD; higher FRET than S26C; EMSA: 5 nM RNA, 10 mM HEPES pH 7.4, 75 mM NaCl, 0.01% Tween 20, 0.1 mg/ml BSA, 0.1 mg/ml yeast tRNA, 2 mM DTT, 4 C overnight; conditions: protein: recombinant;recombinant; tags: His-SUMO, removed by TEV;Cy5-maleimide on C74; chain copies: 2;1; label: 5'-Cy3
[11] = molecular target: T2, FBF-2 RBD+CT; assay: EMSA; up to 5 uM FBF-2; EMSA: 5 nM RNA, 10 mM HEPES pH 7.4, 75 mM NaCl, 0.01% Tween 20, 0.1 mg/ml BSA, 0.1 mg/ml yeast tRNA, 2 mM DTT, 4 C overnight; conditions: protein: recombinant; tags: His6-SUMO, removed by Ulp1; label: 3'-Cy5

| Kd [5] | dH [5] | stoichiometry N [5] | Kd [6] | dH [6] | stoichiometry N [6] | Binder | other results |
| --- | --- | --- | --- | --- | --- | --- | --- |
| – | – | – | – | – | – | CAUGUUGCCAU (ssRNA) [gld-1 FBEa* 11-nt (crystal)] | binding result [1]: binds |
| – | – | – | – | – | – | AUCAUGUGCCAUACAUCAACAUGCCAUUU (ssRNA) [FBEa-FBEa*m] | Kd [2]: 1.19 ± 0.009 µM; Kd [3]: 0.145 ± 0.004 µM |
| 1.1 µM and 1.9 µM | -61.9 kJ/mol and -45.1 kJ/mol | 0.5 sites and 0.57 sites | 0.48 µM and 0.52 µM | -139 kJ/mol and -157 kJ/mol | 0.46 sites | LST-1 peptide (residues 19-98) spanning PIM-A and PIM-B (domain or fragment, C. elegans, UniProt P91820 19-98, looked up, LST-1 (lateral signaling target 1), C. elegans, residues 19-98 of the N-terminal intrinsically disordered region; Codon-optimised synthetic cDNA in pSMT3; tag removed with Ulp1; also called LST-1^19–98; source: E. coli BL21-CodonPlus (DE3)-RIL, purified (Ni-NTA, heparin, Ni-NTA pass, Superdex 75)) STIAYSKSQHEAPKQLLQLRSEIKPLIPLNQPSNFWESSQDSGVLSSLSSSPQQRSGLRSQKLHLTYIEKNKRVRAMIPQ | EMSA: RNA-binding affinity of FBF-2 RBD+CT for the 29-nt FBEa-FBEa* RNA with 10 µM LST-1 19-98 against without LST-1 [4]: 4 fold |
| – | – | – | – | – | – | LST-1^19–98 from the GST fusion coexpressed with FBF-2 (domain or fragment, C. elegans, UniProt P91820 19-98, looked up, LST-1, C. elegans, residues 19-98; GST removed with TEV protease; also called GST-LST-1^19–98; not shown: GST, N-terminal, cleaved) STIAYSKSQHEAPKQLLQLRSEIKPLIPLNQPSNFWESSQDSGVLSSLSSSPQQRSGLRSQKLHLTYIEKNKRVRAMIPQ | stoichiometry N [7]: 2 FBF-2 per LST-1; stoichiometry N [8]: 2 FBF-2 per LST-1 |
| 24.1 µM and 46.2 µM | -46.3 kJ/mol and -48.3 kJ/mol | 1.06 sites and 0.89 sites | 1.46 µM and 1.54 µM | -50.8 kJ/mol and -52.5 kJ/mol | 0.83 sites and 0.86 sites | LST-1^19–98(B^m): K80A, L83A, Y85A (domain or fragment, C. elegans, UniProt P91820 19-98, looked up, LST-1, C. elegans, residues 19-98 with PIM-B mutated; PIM-A intact; also called LST-1 B^m; source: E. coli, purified by the same protocol as the wild-type LST-1 19-98) STIAYSKSQHEAPKQLLQLRSEIKPLIPLNQPSNFWESSQDSGVLSSLSSSPQQRSGLRSQALHATAIEKNKRVRAMIPQ | – |
| 3.7 µM and 2.8 µM | -47.9 kJ/mol and -48.3 kJ/mol | 1.02 sites and 0.98 sites | 0.13 µM and 0.12 µM | -64.1 kJ/mol and -68.9 kJ/mol | 1.15 sites and 1.05 sites | LST-1^19–98(A^m): K32A, L35A (domain or fragment, C. elegans, UniProt P91820 19-98, looked up, LST-1, C. elegans, residues 19-98 with PIM-A mutated; PIM-B intact; also called LST-1 A^m; source: E. coli, purified by the same protocol as the wild-type LST-1 19-98) STIAYSKSQHEAPAQLAQLRSEIKPLIPLNQPSNFWESSQDSGVLSSLSSSPQQRSGLRSQKLHLTYIEKNKRVRAMIPQ | – |
| – | – | – | – | – | – | LST-1^19–98 S74C labeled with Cy5 (domain or fragment, C. elegans, UniProt P91820 19-98, looked up, Cy5 maleimide dye on C74, LST-1, C. elegans, residues 19-98 with a cysteine in place of S74, five residues upstream of PIM-B; Probably made as the wild-type LST-1 19-98 (His6-SUMO, cleaved); also called C74-labeled LST-1^19–98; source: purified; expression not described for this mutant) STIAYSKSQHEAPKQLLQLRSEIKPLIPLNQPSNFWESSQDSGVLSSLSSSPQQRCGLRSQKLHLTYIEKNKRVRAMIPQ | binding result [9]: binds |
| – | – | – | – | – | – | AUCAUGUGCCAUACAUCAUGUUGCCAUUU (ssRNA) [gld-1 FBEa-FBEa* (FRET)] | binding result [10]: binds |
| – | – | – | – | – | – | AUCAACAGCCAUACAUCAACAUGCCAUUU (ssRNA) [FBEam-FBEa*m] | binding result [11]: no binding |
